In patent US8409836B2, “Treatment of cellulosic material and enzymes useful therein” (Roal Oy, priority 2005, dated 2013):

Columns and labels:
Type in all cases: biochemical
[1] = Endoglucanase activity on carboxymethyl cellulose; settings: purified endoglucanase, 50° C., procedure of IUPAC 1987
Description: The specific activity of the preparations was determined using 4-methylumbelliferyl-β-D-lactoside (MUL), 4-methylumbelliferyl-β-D-cellobioside (MUG2) or 4-methylumbelliferyl-β-D-cellotrioside (MUG3) as substrate (van Tilbeurgh et al., 1988) in 0.05 M sodium citrate buffer pH 5 at 50° C. for 10 min. Endoglucanase and xylanase activities were determined by standard procedures (according to IUPAC, 1987) using carboxymethyl cellulose (CMC) and birch glucuronoxylan (Bailey et al., 1992) as substrates. Specific activity against Avicel was calculated on the basis of reducing sugars formed in a 24 h reaction at 50° C., pH 5.0, with 1% substrate and 0.25 μM enzyme dosage. The protein content of the purified enzyme preparations was measured according to Lowry et al., 1951. To characterize the end products of hydrolysis, soluble sugars liberated in 24 h hydrolysis experiment, as described above, were analysed by HPLC (Dionex). Purified cellobiohydrolase I (CBHI/Cel7A) of Trichoderma reesei was used as a reference.
Acremonium thermophilum ALKO4245 was grown as described in Example 1. The culture supernatant was incubated at 70° C. for 24 hours after which it was concentrated by ultrafiltration. The pure endoglucanase was obtained by sequential purification with hydrophobic interaction and cation exchange chromatography followed by gel filtration. The endoglucanase activity of the fractions collected during purification was determined using carboxymethyl cellulose (CMC) as substrate (procedure of IUPAC 1987). Protein content was measured by BioRad Assay Kit (Bio-Rad Laboratories) using bovine serum albumine as standard.
Thermoascus aurantiacus ALKO4242 was grown as described in Example 1. The pure endoglucanase was obtained by sequential purification with hydrophobic interaction and anion exchange chromatography followed by gel filtration. The endoglucanase activity of the fractions collected during purification was determined using carboxymethyl cellulose (CMC) as substrate (procedure of IUPAC 1987). Protein content was measured by BioRad Assay Kit (Bio-Rad Laboratories) using bovine serum albumine as standard.

[2] = pH optimum of heterologously produced endoglucanases; settings: McIlvaine's buffer; for pH optimum: pH range 4.0-8.0, CMC, 10 min, 50° C.
Description: (§1) The pH optimum of the heterologously produced endoglucanases was determined in the universal McIlvaine's buffer within a pH range of 4.0-8.0 using carboxymethylcellulose as substrate. As shown in FIG. 6 A the broadest pH range (4.5-6.0) is that of the Acremonium EG—40/Cel45A protein, the optimum being at pH 5.5. The pH optima for the other heterologously produced endoglucanases are pH 5.0-5.5 and 6.0 for Acremonium EG—40_like/Cel45B and Thermoascus EG—28/Cel5A, respectively. The optimal temperature for enzymatic activity of these endoglucanases was determined at the temperature range of 50-85° C. as described above. The highest activity of the enzymes was determined to be at 75° C., 60° C., and 75° C. for the Acremonium EG—40/Cel45A, EG—40 like/Cel45B, and Thermoascus EG—28/Cel5A, respectively (FIG. 6 B).

[3] = Temperature optimum of heterologously produced endoglucanases; settings: temperature range 50-85° C., CMC
Description: as §1

[4] = Hydrolysis with endoglucanase preparations, spruce; settings: 48 h, 45° C., pH 5.0
Description: (§2) The preparations containing the endoglucanases were compared in hydrolysis studies mixed with the purified CBH/Cel7 and CBH/Cel6 enzymes on several pre-treated substrates. Culture filtrates of T. reesei, containing different cloned endoglucanase enzymes were obtained as described in Example 19. The enzymes were enriched by removing thermolabile proteins from the mixtures by a heat treatment (60° C., 2 h, pH 5) and the supernatant was used for the hydrolysis studies. In addition, pure T. reesei cellulases (purified as described by Suurnäkki et al., 2000) were used in the enzyme mixtures. The endoglucanases used in the experiment were:
Washed steam pre-treated spruce fibre (impregnation with 3% SO2 for 20 min, followed by steam pre-treatment at 215° C. for 5 min), dry matter 25.9% (SPRUCE).
(§3) The endoglucanases to be studied (dosage 840 nkat/g dry matter, based on endoglucanase activity against HEC according to IUPAC, 1987) were used either with cellobiohydrolases of T. reesei (CBHI/Cel7A, 8.1 mg/g d.m. and CBHII/Cel6A, 2.0 mg/g d.m.) or with Thermoascus aurantiacus Cel7A with genetically attached CBD of T. reesei (10.1 mg/g d.m.). Purified (Suurnäkki et al., 2000) EGI (Cel7B) and EGII (Cel5A) of T. reesei were also included in the experiments for comparison. All mixtures were supplemented with additional β-glucosidase from Novozym 188 (to make the total β-glucosidase dosage 560 nkat/g d.w., the relatively high dosage was used to compensate the differences in the background activities of the different EG preparations). Triplicate tubes were incubated in mixing at 45° C. for 48 h and reference samples with inactivated enzymes and corresponding substrates were prepared. The release of hydrolysis products was measured as reducing sugars with DNS method using glucose as standard (Table 31).

[5] = Hydrolysis with endoglucanase preparations, corn stover; settings: 48 h, 45° C., pH 5.0
Description: as §2
Steam exploded corn stover fibre (steam pre-treatment at 210° C. for 5 min), dry matter 31.0% (SECS).
as §3

[6] = pH optimum of heterologously produced β-glucosidases; settings: McIlvaine's buffer, pH range 3.0-8.0, 4-nitrophenyl-β-D-glucopyranoside
Description: (§4) The pH optimum of the heterologously produced β-glucosidases was determined in the universal McIlvaine's buffer within a pH range of 3.0-8.0 using 4-nitrophenyl-β-D-glucopyranoside as substrate. The pH optima for the Acremonium βG—101, Chaetomium βG—76, and Thermoascus βG—81 are pH 4.5, 5.5, and 4.5, respectively (FIG. 7 A). The optimal temperature for enzymatic activity of these β-glucosidases was determined at the temperature range of 50-85° C. as described above. The highest activity of the enzymes was determined to be at 70° C., 65° C., and 75° C. for the Acremonium βG—101/Cel3A, Chaetomium βG—76/Cel3A, and Thermoascus βG—81/Cel3A, respectively (FIG. 7 B).

[7] = Temperature optimum of heterologously produced β-glucosidases; settings: temperature range 50-85° C., 60 min
Description: as §4

[8] = with CBHI and CBHII of T. reesei
[9] = with T. aurantiacus Cel7A + Tr CBD

Molecule | Specific activity on CMC [1] | pH range (broadest) ([2]; CMC) | pH optimum [2] | Temperature of highest activity [3] | Hydrolysis products as reducing sugars, SPRUCE [4, 8] | Hydrolysis products as reducing sugars, SPRUCE [4, 9] | Hydrolysis products as reducing sugars, SECS [5, 8] | Hydrolysis products as reducing sugars, SECS [5, 9] | pH optimum [6] | Temperature of highest activity [7]
At EG_40: endoglucanase of Acremonium thermophilum ALKO4245, gene At cel45A, amino acid SEQ ID NO: 12 (protein) MRSSPFLRAALAAALPLSAHALDGKSTRYWDCCKPSCGWPGKASVNQPVFSCSADWQRISDFNAKSGCDGGSAYSCADQTPWAVNDNFSYGFAATAIAGGSESSWCCACYALTFNSGPVAGKTMVVQSTSTGGDLGSNQFDLAIPGGGVGIFNGCASQFGGLPGAQYGGISDRSQCSSFPAPLQPGCQWRFDWFQNADNPTFTFQRVQCPSELTSRTGCKRDDDASYPVFNPPSGGSPSTTSTTTSSPSGPTGNPPGGGGCTAQKWAQCGGTGFTGCTTCVSGTTCQVQNQWYSQCL | 450 nkat/mg | 4.5-6.0 | 5.5 | 75 °C | 4.9 mg/mL | 4.8 mg/mL | 4.3 mg/mL | 4.0 mg/mL |  | 
At EG_40_like: endoglucanase of Acremonium thermophilum ALKO4245, gene At cel45B, amino acid SEQ ID NO: 14 (protein) MRLPLPTLLALLPYYLEVSAQGASGTGTTTRYWDCCKPSCAWPLKGNSPSPVQTCDKNDRPLNDGGNTKSGCDNGGGAFMCSSQSPWAVNETTSYGWAAVRIAGSTESAWCCACYELTFTSGPVSGKKLIVQATNTGGDLGSNHFDLAIPGGGVGQSNACTNQYGAPPNGWGDRYGGVHSRSDCDSFPAALKAGCYWRFDWFQGADNPSVSFKQVACPAAITAKSGCTRQNDAINETPTGPSTVPTYTASG |  |  | 5.0-5.5 | 60 °C | 4.5 mg/mL |  | 4.8 mg/mL |  |  | 
Ct βG_76: beta-glucosidase of Chaetomium thermophilum ALKO4261, gene Ct cel3A, amino acid SEQ ID NO: 26 (protein) MALHAFLLLASALLARGALSQPDNVRRAAPTGTAAWDAAHSQAAAAVSRLSQQDKINIVTGVGWGKGPCVGNTNPVYSINYPQLCLQDGPLGIRSATSVTAFTPGIQAASTWDVELIRQRGVYLGQEARGTGVHVLLGPVAGALGKIPHGGRNWEAFGSDPYLAGIAMSETIEGIQSEGVQACAKHYIANEQELNRETMSSNVDDRTMHELYLWPFADAVHSNVASVMCSYNKLNGTWLCENDRAQNQLLKRELGFRGYIVSDWNAQHTTVGSANSGMDMTMPGSDFNGWNVLWGPQLNNAVNSGQVSQSRLNDMVQRILAAWYLLGQNSGYPSINLRANVQANHKENVRAVARDGIVLLKNDGILPLQRPNKIALVGSAAVVNPRGMNACVDRGCNEGALGMGWGSGTVEYPYFVAPYDALRERAQRDGTQISLHASDNTNGVNNAVQGADAAFVFITADSGEGYITVEGHAGDRNHLDPWHNGNQLVQAVAQANKNVIVVVHSVGPVILETILNTPGVRAVVWAGLPSQESGNALVDVLYGLVSPSGKLVYTIAKSPSDYPTSIVRGDDNFREGLFIDYRHFDNARIEPRFEFGFGLSYTNFSYSNLGISSSATAGPATGPTVPGGPADLWNYVATVTATVTNTGGVEGAEVAQLYISLPSSAPASPPKQLRGFVKLKLAPGQSGTATFRLRKRDLAYWDVGRQNWVVPSGRFGVLVGASSRDIRLQGEIVV |  |  |  |  |  |  |  |  | 5.5 | 65 °C
